{"source": "paper PMC4941208", "about": "(Journal of the American Chemical Society, 2015)", "molecules": {"B1": {"name": "P-1 (Nap-FF-LGFNI, heptapeptide derivative) (peptide)", "peptide": "{Acetyl(2-naphthyl)}-FFLGFNI"}, "B2": {"name": "GP-2 (thymine-TTPV-glucosamine, conjugate of nucleobase, peptide and saccharide) (peptide)", "peptide": "thymine-TTPV-GlcN"}, "B3": {"name": "P-3 (thymine-TTPV, non-glycosylated control of GP-2) (peptide)", "peptide": "thymine-TTPV"}}, "key": {"proteinase K": {"target": "proteinase K (Parengyodontium album, UniProt P06873)", "sequence (P06873 106-384)": "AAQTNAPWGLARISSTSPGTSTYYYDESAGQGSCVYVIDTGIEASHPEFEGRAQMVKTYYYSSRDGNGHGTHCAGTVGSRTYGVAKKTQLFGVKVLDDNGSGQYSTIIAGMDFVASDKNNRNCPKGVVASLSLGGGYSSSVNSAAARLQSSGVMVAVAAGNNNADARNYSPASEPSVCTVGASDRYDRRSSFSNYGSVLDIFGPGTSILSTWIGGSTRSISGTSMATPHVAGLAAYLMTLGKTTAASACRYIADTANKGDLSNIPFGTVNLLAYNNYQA", "format": "in vitro ADME", "conditions": "37 °C, 24 h"}, "hydrogel of P-1": {"system": "hydrogel of P-1", "assay": "Gel-sol transition and rheology", "format": "physicochemical", "conditions": "7 days"}, "[1]": {"assay": "TEM of hydrogel and solutions", "format": "physicochemical", "conditions": "solution at 16.6 mM"}, "hydrogelation + TEM": {"target": "the molecule itself", "assay": "hydrogelation + TEM"}, "[2]": {"target": "T1, P-1 (Nap-FF-LGFNI, heptapeptide derivative)", "T1 sequence (peptide, 2-(naphthalen-2-yl)acetic group (Nap) on the N-terminus)": "FFLGFNI", "assay": "ITC"}}, "note": "No end group written: not given here. *: point of attachment. GlcN = OC[C@H]1OC(O)[C@H](N*)[C@@H](O)[C@@H]1O; Acetyl(2-naphthyl) = O=C(Cc1ccc2ccccc2c1)*", "data": [{"molecule": "GP-2: Glycoconjugate of nucleobase, peptide, saccharide: thymine at N-terminal and glucosamine at C-terminal of TTPV (thymine-TTPV-GlcN)", "values": [{"measurement": "Hydrogelator P-1 remaining in mixture with 1 equiv of compound", "setting": "proteinase K; hydrogel of P-1 + compound 1:1, proteinase K 3.2 U/mL", "value": "45.0 ± 0.4", "unit": "%"}, {"measurement": "Hydrogelator P-1 remaining in mixture with 4 equiv of compound", "setting": "proteinase K; hydrogel of P-1 + compound 4:1, proteinase K 3.2 U/mL", "value": "24.2 ± 2.0", "unit": "%"}, {"measurement": "G' times smaller than that of hydrogel of P-1", "setting": "hydrogel of P-1; 4 equiv of compound", "value": "about 300 times"}, {"measurement": "Max G' of P-1 after addition of 4 equiv of compound", "setting": "hydrogel of P-1; hydrogel of P-1 622 μM, pH 6.4, 300 μL + 50 μL 15 mM compound (4:1)", "value": 0.06, "unit": "Pa"}, {"measurement": "nanostructures in TEM images of the solution", "setting": "[1]", "value": "hardly any ordered nanostructures"}]}, {"molecule": "B1", "values": [{"measurement": "binding result", "setting": "hydrogelation + TEM", "value": "binds"}]}, {"molecule": "B2", "values": [{"measurement": "Kd", "setting": "[2]", "value": 262, "unit": "µM"}, {"measurement": "dH", "setting": "[2]", "value": -17.2, "unit": "kJ/mol"}, {"measurement": "stoichiometry N", "setting": "[2]", "value": 1.04}]}, {"molecule": "B3", "values": [{"measurement": "Kd", "setting": "[2]", "value": 235, "unit": "µM"}, {"measurement": "dH", "setting": "[2]", "value": -13.1, "unit": "kJ/mol"}, {"measurement": "stoichiometry N", "setting": "[2]", "value": 1.38}]}]}
